Experimental findings from patent publication US20210403565A1 (BIOATLA, published 2021) are described below.

A word on the EC50: it is the concentration at which the effect is half-maximal. As a reminder, the Kd is the free concentration of one partner at which half of the binding sites on the other are occupied at equilibrium, for simple one-to-one binding.

Assay [1] addresses T1, human CTLA4 expressed on the cell surface of CHO cells (human, UniProt P16410 36-223).
T1 construct: whole, on cells; also called CHO-huCTLA4; huCTLA4
T1 sequence (looked up): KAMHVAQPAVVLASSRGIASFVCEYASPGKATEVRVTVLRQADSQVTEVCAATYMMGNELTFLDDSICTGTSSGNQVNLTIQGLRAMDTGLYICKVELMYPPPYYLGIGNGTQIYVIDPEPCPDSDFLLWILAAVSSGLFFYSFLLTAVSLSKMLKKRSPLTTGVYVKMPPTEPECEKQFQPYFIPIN
In words: FACS competition on CHO-huCTLA4: hB7-2 titrated against a fixed concentration of Ipilimumab, bound antibody detected, % competition; pH 6.0 per the text; no plateau reached (about 25 to 45 % at log 3.95); unit from the axis hB7-2 log[ng/mL].

In assay [2] the target is T1, human CTLA4 expressed on the cell …. In words: FACS competition on CHO-huCTLA4: hB7-2 titrated against a fixed concentration of BA-087-05-19, bound antibody detected, % competition; pH 6.0 per the text; no plateau reached (about 25 to 45 % at log 3.95); unit from the axis hB7-2 log[ng/mL].
Assay [3] shares this target. In words: FACS competition on CHO-huCTLA4: hB7-2 titrated against a fixed concentration of BA-087-08-32, bound antibody detected, % competition; pH 6.0 per the text; no plateau reached (about 25 to 45 % at log 3.95); unit from the axis hB7-2 log[ng/mL].
For assay [4] the target is unchanged. In words: FACS competition on CHO-huCTLA4: hB7-2 titrated against a fixed concentration of Ipi Analog, bound antibody detected, % competition; pH 6.0 per the text; no plateau reached (about 25 to 45 % at log 3.95), fit marked ~; unit from the axis hB7-2 log[ng/mL].
Assay [5] concerns the target T2, cynomolgus CTLA4 expressed on the cell surface of CHO cells (cynomolgus, UniProt G7PL88 36-223).
T2 construct: whole, on cells; also called CHO-cynoCTLA4
T2 sequence: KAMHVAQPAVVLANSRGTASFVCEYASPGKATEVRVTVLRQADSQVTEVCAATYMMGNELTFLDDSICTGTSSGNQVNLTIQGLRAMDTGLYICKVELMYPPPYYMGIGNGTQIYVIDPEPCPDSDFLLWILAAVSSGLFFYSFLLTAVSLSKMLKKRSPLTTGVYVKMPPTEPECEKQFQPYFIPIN
In words: FACS on CHO-cynoCTLA4 cells, pH 6.0, mean. How it is done: The amount of antibodies bound on the cells was quantified using anti-human IgG antibody conjugated to fluorophores. EC₅₀ values at pH 6.0 and 7.4 for binding to cells were calculated using the nonlinear fit (variable slope, four parameters) model built into GraphPad Prism software (version 7.03). The expression levels of human CTLA4 or cynomolgus CTLA4 on the surface of the CHO cells were determined using a BD QuantiBRITE™ PE kit.

Assay [6] concerns the target T3, recombinant cynomolgus CTLA4 extracellular domain (cynomolgus, UniProt G7PL88 36-161).
T3 construct: extracellular domain; also called cynoCTLA-4; cynoCTLA4
T3 sequence: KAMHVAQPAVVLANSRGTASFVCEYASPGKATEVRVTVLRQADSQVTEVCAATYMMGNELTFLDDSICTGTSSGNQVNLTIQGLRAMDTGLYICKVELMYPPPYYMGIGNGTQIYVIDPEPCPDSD
In words: ELISA, immobilised cynoCTLA-4, pH 6.0, mean +/- SD. On the technique in general: In an ELISA, binding on a coated surface is turned into a signal by an enzyme label.

In assay [7] the target is T3, recombinant cynomolgus CTLA4 …. In words: ELISA, immobilised cynoCTLA-4, pH 6.0, Jun. 19, 2017.
The target is the same in assay [8]. In words: ELISA, immobilised cynoCTLA-4, pH 6.0, Jun. 27, 2017.
For assay [9] the target is unchanged. In words: SPR, cynomolgus CTLA4 ECD immobilised, pH 6.0, equilibrium fit. In general terms: Surface plasmon resonance follows binding to a sensor surface in real time, without labels.
Assay [10] concerns the target T2, cynomolgus CTLA4 expressed on the cell …. In words: FACS, CHO cells expressing cynomolgus CTLA4 (CHO-cynoCTLA-4), pH 7.4, MFI; no unit in the table, unit from the axis Log Antibodies [ng/ml].

B1: hB7-2 (hCD86) (ligand, human, UniProt P42081 24-247, looked up)
chain: APLKIQAYFNETADLPCQFANSQNQSLSELVVFWQDQENLVLNEVYLGKEKFDSVHSKYMGRTSFDSDSWTLRLHNLQIKDKGLYQCIIHHKKPTGMIRIHQMNSELSVLANFSQPEIVPISNITENVYINLTCSSIHGYPEPKKMSVLLRTKNSTIEYDGVMQKSQDNVTELYDVSISLSVSFPDVTSNMTIFCILETDKTRLLSSPFSIELEDPQPPPDHIP
On to B1, for which the half-maximal effective concentration (EC50) is 7.19 µg/mL in assay [1], 3.73 µg/mL in [2], 3.87 µg/mL in assay [3] and around 2.45 µg/mL in assay [4].

B2: Ipilimumab (antibody, V domains shown)
VH: QVQLVESGGGVVQPGRSLRLSCAASGFTFSSYTMHWVRQAPGKGLEWVTFISYDGNNKYYADSVKGRFTISRDNSKNTLYLQMNSLRAEDTAIYYCARTGWLGPFDYWGQGTLVTVSS
VL: not shown
B2: the EC50 in assay [5] is 0.338 µg/mL; in assay [6], 0.0153 µg/mL; in [7], 0.00966 µg/mL; in assay [8], 0.021 µg/mL; in assay [10], 0.177 µg/mL. Further, the Kd in assay [9] came to 6.58 nM.
